# T1: Φ29 terminal protein (Φ29TP) (Bacillus phage Φ29, UniProt P03681 1-266)
# T1 sequence: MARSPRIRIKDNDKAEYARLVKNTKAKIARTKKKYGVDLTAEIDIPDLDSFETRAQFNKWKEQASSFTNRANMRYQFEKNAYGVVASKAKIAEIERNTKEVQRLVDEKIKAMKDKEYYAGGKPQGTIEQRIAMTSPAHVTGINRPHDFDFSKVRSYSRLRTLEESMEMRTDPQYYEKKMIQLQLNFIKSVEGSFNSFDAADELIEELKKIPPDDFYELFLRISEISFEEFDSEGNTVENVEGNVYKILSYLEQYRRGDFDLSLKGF
# B1: RNA-50mer (ssRNA)
# RNA: GAAAAUAAAAAUAAACUGGACAAUUAAGGAUCCUGUACAAGUCGACGCGG
# B2: 50-mer (ssDNA)
# DNA: GAAAATAAAAATAAACTGGACAATTAAGGATCCTGTACAAGTCGACGCGG
# B3: 50-mer dsDNA (dsDNA)
# DNA 1: GAAAATAAAAATAAACTGGACAATTAAGGATCCTGTACAAGTCGACGCGG
# DNA 2: CCGCGTCGACTTGTACAGGATCCTTAATTGTCCAGTTTATTTTTATTTTC
# Legend:
# [1] = tested on: B35SSB (Bacillus phage Bam35 (betatectivirus)); test: EMSA; details: EMSA: 50 mM Tris-HCl pH 7.5, 50 mM NaCl, 1 mM DTT, 4% glycerol, 0.1 mg/ml BSA, 0.05% Tween 20, 1 mM EDTA, 10 min at 4 C, 2 nM labeled probe
# EcoSSB = EcoSSB (Escherichia coli, UniProt P0AGE0 1-178); test: EMSA; 1 uM protein; EMSA: 50 mM Tris-HCl pH 7.5, 50 mM NaCl, 1 mM DTT, 4% glycerol, 0.1 mg/ml BSA, 0.05% Tween 20, 1 mM EDTA, 10 min at 4 C; 2 nM labeled probe; details: chain copies: 4; label: 5' 32P
# [2] = biological target: T1, Φ29 terminal protein (Φ29TP); test: EMSA; 20 nM protein; EMSA: 50 mM Tris-HCl pH 7.5, 50 mM NaCl, 1 mM DTT, 4% glycerol, 0.1 mg/ml BSA, 0.05% Tween 20, 1 mM EDTA, 10 min at 4 C; 2 nM labeled probe; details: label: 5' 32P on strand 1; blunt
# EcoSSB, sequence (P0AGE0 whole entry): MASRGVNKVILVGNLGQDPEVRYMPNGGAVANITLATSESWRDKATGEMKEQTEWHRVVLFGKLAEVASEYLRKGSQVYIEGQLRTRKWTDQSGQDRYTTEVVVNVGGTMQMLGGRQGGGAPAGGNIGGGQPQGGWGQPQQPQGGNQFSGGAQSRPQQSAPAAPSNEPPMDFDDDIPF
molecule,measurement,setting,value
ACTGGCCGTCGTTCTATTGTACTCACTGTGATC [33-mer],binding signal,[1]; 500 nM protein (25% bound at 250 nM),50 % bound
GAAAAUAAAAAUAAACUGGACAAUUAAGGAUCCUGUACAAGUCGACGCGG [RNA-50mer],binding signal,[1]; 5 uM protein,10 % bound
GATCACAGTGAGTAC [15-mer],binding signal,"[1]; 1 uM protein, minor smear",< 10 % bound
GGCCCATATGTACCCATACGACGTCCCAGACTACGCTGGGACGGGGAGCGGGGCCAGTAAACTACTGACTGCGCAAGAGG [80-mer],binding signal,[1]; 250 nM protein,70 % bound
B1,binding result,EcoSSB,binds
B2,binding result,EcoSSB,binds
B3,binding result,[2],binds

# From paper PMC8276246, “Unlimited Cooperativity of Betatectivirus SSB, a Novel DNA Binding Protein Related to an Atypical Group of SSBs From Protein-Primed Replicating Bacterial Viruses”
